# Measurements published in patent publication US20250042973A1 (WUHAN UNIVERSITY, published 2025).
# B1: recombinant protein of GPER (G protein-coupled estrogen receptor) (receptor)
# chain: LSHPLLGTALANGTGELSEHQQYVIGLFLSCLYTIFLFPIGFVGNILILVVNISFREKMTIPDLYFINLAVADLILVADSLIEVFNLHERYYDIAVLCTFMSLFLQVNMYSSVFFLTWMSFDRYIALARAMRCSLFRTKHHARLSCGLIWMASVSATLVPFTAVHLQHTDEACFCFADVREVQWLEVTLGFIVPFAIIGLCYSLIVRVLVRAHRMKKYTCTVCGYIYNPEDGDPDNGVNPGTDFKDIPDDWVCPLCGVGKDQFEEVEEHRGLRPRRQKALRMILAVVLVFFVCWLPENVFISVHLLQRTQPGAAPCKQSFRHAHPLTGHIVNLAAFSNSCLNPLIYSFLGETFRDKLRLYIEQKTNL
# notes: The source plasmid is wild-type GPER (pDNR-Dual, BC011634, HsCD00005110); The purified protein is reported as monomer and dimer; also called GPER protein
# Biological target: the molecule itself
# Assay: self-association (homodimer) seen on SDS-PAGE / Western blot after nickel affinity purification
# Description: In a process of Western Blot, Gel block of samples from the Electrophoresis was electro-transferred to NC membrane at 100 V for 90 min. The NC membrane was then washed with TBST for three times, and blocked with 5% skim milk on a shaker for 2 h. After blocking, the NC membrane was then washed with TBST for three times, and incubated with GPER antibody (Invitrogen, PA5-28647) overnight. After that, the NC membrane was then washed with TBST for three times, and incubated with secondary antibody (HRP-labeled Goat Anti-Rabbit IgG, ABclonal, AS014, BR) at room temperature for 3 h, washed with TBST for three times, visualized the result in the dark room with DAB.
protein,measurement,value
B1,binding result,binds
